Source: the supplement of paper PMC9876800

Test system: peptide library, one residue held at a place counted from the S/T acceptor
Assay: relative phosphorylation of the sub-library (ratio to the mean residue at this position); higher = residue favoured
In short: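 Spots on streptavidin membranes were phosphorimaged and quantified by densitometry to measure phosphorylation of biotinylated degenerate peptide sub-libraries by purified recombinant kinases, human or orthologue constructs. The reactions ran in 384-well plates for 90 min under kinase-specific conditions, with peptides at 50 μM and 50 μM ATP spiked with γ-32P-ATP. Relative sub-library phosphorylation is the ratio to the mean residue at that position.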

Sequence of MAP3K21, construct: aa98-451, human (Q5TCX8 98-451, looked up): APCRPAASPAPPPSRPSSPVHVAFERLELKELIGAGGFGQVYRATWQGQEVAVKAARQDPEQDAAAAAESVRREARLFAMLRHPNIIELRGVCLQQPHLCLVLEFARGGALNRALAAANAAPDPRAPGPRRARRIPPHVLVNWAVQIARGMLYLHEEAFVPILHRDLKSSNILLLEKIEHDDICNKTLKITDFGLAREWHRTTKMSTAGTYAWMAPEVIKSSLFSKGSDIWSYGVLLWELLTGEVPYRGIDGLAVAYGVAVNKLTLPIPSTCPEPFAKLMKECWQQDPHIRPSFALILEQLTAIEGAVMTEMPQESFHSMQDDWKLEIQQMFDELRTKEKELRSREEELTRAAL

MAP2K1, construct: Full length, human (from UniProt Q02750)
relative phosphorylation
Details	at +1	at +2	at +3	at +4	at -1	at -2	at -3	at -4	at -5
A fixed	0.7	0.969	0.94	0.939	1.03	0.942	1.02	0.999	1.03
D fixed	1.55	0.835	1.02	1	0.876	0.955	1.02	1.13	1.08
E fixed	0.866	0.696	0.898	0.911	0.722	0.931	1	1.2	0.95
F fixed	1.18	0.746	0.992	0.92	0.933	1.72	1.04	1.04	1.81
G fixed	0.753	0.712	1.11	1.07	1.35	0.808	0.725	0.902	0.816
H fixed	0.877	3.48	1.29	0.998	1.02	2.03	1.07	1.11	0.992
I fixed	1.56	0.839	0.852	0.976	0.77	0.695	0.998	0.961	0.94
K fixed	0.629	0.84	0.923	0.885	1.07	0.768	1.09	0.861	0.925
L fixed	1.18	0.718	0.947	1.05	1.32	0.787	1.02	0.891	0.943
M fixed	1.42	0.924	0.909	0.949	1.14	1.02	1.02	1.06	0.909
N fixed	0.738	0.738	0.854	0.83	0.959	0.994	0.781	0.974	0.882
P fixed	0.71	0.775	0.969	1.04	0.768	0.615	0.707	0.806	0.935
Q fixed	0.743	0.79	0.854	0.916	0.967	0.834	0.92	0.896	0.886
R fixed	0.616	0.85	0.916	0.875	1.05	0.955	1.36	0.922	0.907
V fixed	1.21	0.913	0.861	0.895	0.848	0.67	0.94	1.06	0.978
W fixed	1.13	0.87	1.37	1.5	1.02	1.13	1.22	1.11	1.01
Y fixed	1.13	1.31	1.29	1.25	1.17	1.14	1.06	1.09	1.01
pThr fixed	1.45	1.08	0.988	1.02	0.87	0.824	1.7	1.14	0.922
pTyr fixed	1.11	0.882	1.11	0.958	0.875	0.763	0.869	1.04	0.873

MAP3K21, construct: aa98-451, human (from UniProt Q5TCX8)
relative phosphorylation
Details	at +1	at +2	at +3	at +4	at -1	at -2	at -3	at -4	at -5
A fixed	0.66	0.456	0.721	0.893	0.777	0.912	0.933	1.05	1.07
D fixed	0.244	0.223	0.462	0.682	1.23	1.55	1.72	1.84	1.8
E fixed	0.435	0.323	0.508	0.676	0.821	1.43	1.97	1.81	1.63
F fixed	1.52	0.38	1.08	0.633	0.875	1.02	0.789	0.676	0.82
G fixed	0.585	0.397	0.796	1.11	0.386	0.992	1.17	1.37	1.24
H fixed	1.21	2.1	1.61	1.16	1.46	1.19	1.19	1.12	1.06
I fixed	1.28	0.502	0.71	0.622	0.534	0.537	0.406	0.49	0.485
K fixed	1.25	2.23	1.52	2.18	1.03	0.356	0.702	0.83	1.03
L fixed	0.726	0.507	1.14	0.58	0.711	0.699	0.545	0.513	0.609
M fixed	1.61	0.467	0.881	0.722	0.914	1.04	0.806	0.818	0.654
N fixed	0.62	0.624	0.829	0.871	1.43	1.18	1.22	1.16	1.01
P fixed	0.185	0.18	0.398	1.46	0.679	1.85	1.19	1.19	1.08
Q fixed	1.16	0.88	0.849	1.16	1.02	1.05	1.16	0.968	0.99
R fixed	1.92	3.75	1.87	2.13	1.4	0.593	0.817	0.902	1.13
V fixed	1.98	0.426	0.81	0.753	0.875	0.52	0.496	0.595	0.682
W fixed	0.707	1.91	1.41	0.702	1.19	0.909	0.872	0.886	0.825
Y fixed	0.907	1.65	1.41	0.661	1.67	1.18	1.02	0.779	0.886
pThr fixed	1.13	0.418	0.664	0.851	0.803	1.09	1.84	1.28	1.35
pTyr fixed	0.604	0.427	0.692	0.519	1.83	1.01	1.17	1.11	1.22
